Assay: yeast display, Sf9 membrane polyspecificity reagent, FACS + sequencing; frameworks hold sequencing errors
How it was run: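 Galactose induction of a Saccharomyces cerevisiae BJ5465 synthetic nanobody display library ran 36–48 hours. The cells were then stained for 1 hour at 4 °C with 10% biotinylated, detergent-solubilized Sf9 membrane reagent, pulled down on streptavidin microbeads and FACS-sorted into low and high (top ~1%) gates on expression and reagent-binding fluorescence. Labels for polyreactivity follow the gate of origin.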

Question: For “QVQLVESGGGLVQAGGSLRLSCAASGFTIWRYAMGWYRQAPGKERELVAAISWRGGSTYYADSVKGRFTISRDNAKNTVYLQMNSLKPEDTAVYYCAAAYNLPPGYDYWGLGTQVTVSS”, which “polyreactivity (PSR sort gate)” value is on record?
Answer: high polyreactivity

Question: With “QVQHEESAGGLVQAGGSLRLSCAASGSTIHPYSMGWSRQAPGKERELVAAITWGGGSTYYADSVKGRFTISRDNAKNTVYLQMNSLKPEDTAVYYCNSYTLYWPDYDYWGQGTQVTVSS” as the sequence, how does the “polyreactivity (PSR sort gate)” value read?
Answer: low polyreactivity

Question: Which “polyreactivity (PSR sort gate)” value does the source give for “QVQLVESGGGLVQAGGSLRLSCAASGRTLLPNAMGWSRQAPGKERELVASIRDGGDTNYADSVKGRFTISRDNAKNTVYLQMNSLKPEDTAVYYCNADWWAYYSFGHEYWGQGTQVTVSS” here?
Answer: low polyreactivity

Question: Which “polyreactivity (PSR sort gate)” value does the source give for “QVQLVDSGGGLVQAGGSLRLSCAASGITFRTYAMGWYRQEPGKERELVAAISGSSTSTYYADSVKGRFTISRDNAKNTVYLQMNSLKPEDTAVYYCAAGYRVSVYRYYYWGQGTQVTVSS” here?
Answer: high polyreactivity

Question: Which “polyreactivity (PSR sort gate)” value does the source give for “QVQLVESGGGLVQAGGSLRLSCAASGRTFGIYAMGWYRQAPGKERELVAAITWSGDSTYYADSVKGRFTISRDNAKNTVYLQMNSLKPEDTAVYYCAADYVGVTSVRYDYWGQGTQVTVSS” here?
Answer: low polyreactivity

Question: Which “polyreactivity (PSR sort gate)” value does the source give for “QEQLHESGGGLVQAGGSLRLSCAASGTISYAGPIGWDRQAPGKAREFVAGIGVGSNTNYADSVKGRFTIIRDNAKNTVYLQMNSLKPEDTAVYYCAVGGYAPLGRPYWGQGTQVTVSS” here?
Answer: low polyreactivity

Question: With “QVQLEESGGGLVQAGGSLRLTCDASGLIFSYYAMGWYRQAPGKERELVAAITGSGGTTYYADSVKGRFTISRDNAKNTVLLQMNSLKPEDTAVYYCATPPPEVWQRWYREYDYWGQGTQVTVSS” as the sequence, how does the “polyreactivity (PSR sort gate)” value read?
Answer: low polyreactivity

Question: Which “polyreactivity (PSR sort gate)” value does the source give for “QVQLVESGGGLVQAGGSLRLSCAASGITFEVYAMGWYRQAPGKERELVAVITSVGSTNYADSVKGRFTISRDNAKNTVYLQMNSLKPEDTAVYFCAAEKWTVRRFNPYTYYRFDYWGHGTQVTVSS” here?
Answer: low polyreactivity

Question: Which “polyreactivity (PSR sort gate)” value does the source give for “QVQLVESGGGLVQAGGSLRLSCAASGLTFVYNAMGWYRQAPGKERELVADISYDGGGTYYADSVKGRFTISRDNAMNTVYLQMNSLKPEDTAVYYCAKRAFGSQGEISYTPPGYDSWGQGTQVTVSS” here?
Answer: low polyreactivity

Question: For “QVQLVESGGGLVQAGGSLRLSCAASGRIIQRYAMGWYRQAPGKERELVATITFNTASTYYADSVKGRFTISRDNAQNTVYLQMNSLKPEDTAVYYCAAKHRGGYGYWGQGTQVTVSS”, which “polyreactivity (PSR sort gate)” value is on record?
Answer: high polyreactivity

Question: Which “polyreactivity (PSR sort gate)” value does the source give for “QVQLVESGGGLVQAGGSLRLSCAASGIFVYYAMGWYRQAPGKERELVAAISSTGTSTYYADSVKGRFTISRDNAKNTVYLQMNSLKPEDTAVYYCAARGYAKRGYWGQGTQVTVSS” here?
Answer: high polyreactivity

Question: With “QVQLVESGGGLVQAGGSLRLSCAASGFIFKKYAMGWYRQAPGKERELVAAISWSGGNTYYADSVKGRFTISRDNAKNTVYLQMNSLKPEDTAVYYCNAAGRRYKFDYWGQGTQVTVSS” as the sequence, how does the “polyreactivity (PSR sort gate)” value read?
Answer: high polyreactivity

Question: With “QVQLVESGGGLVQAGGSLRLSCAASGSIFVYNAMGWYRQAPGKERELVAAISWSGGRTYYADSVKGRFTISRDNAKNTVYIQMNSLKPEDTAVYYCAARGPTRVPYNYWGQGTQVTVSS” as the sequence, how does the “polyreactivity (PSR sort gate)” value read?
Answer: high polyreactivity

Question: With “QVQLVESGGGLVQAGGRLRLSCAASGFTFPWYTMGWYRQAPGKERELVAAISRSGGSTYYADSVKGRFTISRDNAKNTVYLQLNSLKPEDTAVYYCAAEQTRWPDITRYDYWGQGTQVTVSS” as the sequence, how does the “polyreactivity (PSR sort gate)” value read?
Answer: high polyreactivity

Question: Which “polyreactivity (PSR sort gate)” value does the source give for “QVQLVESGGGLLQAGGSLRLSCAASGHTLYRYARGWYRQAPGKERELVAAITSRGGSTFYADSVKGRFTISRDTAKNSVYLQMNRLQPEDTAVYYCNTARGTAPAHDYWGQGTQVTVSS” here?
Answer: low polyreactivity

Question: Which “polyreactivity (PSR sort gate)” value does the source give for “QVQLVESGGGLVQAGGILRLSCAASGRTYGGYAMGWYRQAPGKERELVASITSTGGTHYSDSVKGRFTISRDNAKNTVYLQMNSLKPEDTAVYYFAAGYYYWKYDYWGQGTQVTVSS” here?
Answer: high polyreactivity

Question: For “QVQLVESGGGLVQAGGSLRLSCAASGITFRYYAMGWYRQAPGKERELVAVISTSGGSTYYADSVKGRFTISRDNAKNTVYLQMNSLKPEDTAVYYCAARYTYWGLLRYDYWGQGTQVTVSS”, which “polyreactivity (PSR sort gate)” value is on record?
Answer: high polyreactivity

Question: Which “polyreactivity (PSR sort gate)” value does the source give for “QVQLVESGGGLVQAGGSLRLSCAASGSIFYGYAMGWYRQAPGKERELVAAISWTGGRTYYADSVKGRFTISRDNAKNTVYLQMNSLKPEDTAVYYCNVRRYSVVSGGYWGQGTQVTVSS” here?
Answer: high polyreactivity

Question: Which “polyreactivity (PSR sort gate)” value does the source give for “QVQLVESGGGLVQAGGSLRLSCAASGSTFVNYAMGWYRQAPGKERELVAAITRSGGNTYYADSVKGRFTISRDNAKNTVYLQMNSLKPEDTAVYDCAASFKQDIWYYYWGQGTQVTVSS” here?
Answer: high polyreactivity

Question: With “QVQLVESGGGLVQAGGSLRLSCAASGSIFVLYAMGWYRQAPGKERELVAAINYDGASTYYADSVKGRFTISRDNAKNTVYLQMNSLKREDTAVYYCAKRFGPAYFRLYDYWGQGTQVTVSS” as the sequence, how does the “polyreactivity (PSR sort gate)” value read?
Answer: low polyreactivity

Question: For “QVQLVESGGGLVQAGGSLRLSCAASGLTFSVNAMGWYRQAPGKERELVAAINYGGGSTYYADSVKGRFTISRDNAKNTVYLQMNSLKPEDTAVYYCAAVPYPRGKGYDYWGQGTQVTVSS”, which “polyreactivity (PSR sort gate)” value is on record?
Answer: high polyreactivity

Question: With “QVQLVESGGGLVQPGGSLRLSCAASGRTLQRNAMVWYRQAPGKERELVAAISSSGGSTYYADSVKGRFTISRDNAKNTFYLQMNSLKPDDTAVYYCNTDSVYRYHYWGQGTEVTVSS” as the sequence, how does the “polyreactivity (PSR sort gate)” value read?
Answer: high polyreactivity

Question: With “QVQLVESGGGLVQAGGSLRLSCAASGFIFRPYVMGWYRQAPGKERELVAAISRSGSSTYYADSVKGRFTISRDNAKNTVYLQMNSLKPEDTAVYYCNAVYYLYKGDYWGQGTQVTVSS” as the sequence, how does the “polyreactivity (PSR sort gate)” value read?
Answer: high polyreactivity

Question: Which “polyreactivity (PSR sort gate)” value does the source give for “QVQLVESWGGLVQAAGSLRLSCAASGFIFRYNTMGSSRQAPAKERESVAAFSVSGARTYYADSVKGRFTISRDNAKNTVYLLMNSLKTEDTAVYYCNRRYPFYSRYNNDYWGQGTQVTVSS” here?
Answer: high polyreactivity

Question: Which “polyreactivity (PSR sort gate)” value does the source give for “QVQLVESGGGLVQAGGSLRLSCAASGGTFRVYAMGWYRQAPGKERELVASISWTVGGTYADSVKGRFTISRDNAKNTVYLQMNSLKPEDTAVYYCAAGGEWVNPYFPSSLDYWGQGTQVTVSS” here?
Answer: low polyreactivity

Question: With “QVQLVESGGGLVQAGGSLRLSCAASGSTFVVNAMGWYRQAPGKERELVAAIRSGSSTNYADSVKGRFTISRDNAKNTVYLQMNSLKPEDTAVYYCAARSKYTHSRQSDYWGQGTQVTVSS” as the sequence, how does the “polyreactivity (PSR sort gate)” value read?
Answer: low polyreactivity

Question: For “QVQLVESGGGLVQAGGSLRLSCAASGITFGRNTMGWSRQAPGKERELVAAIDSGANTYADSVKGRFTISSDNAKNTVYLQMISLKPEDSAVYYCAVDGGEFSSYGYWGQGTQVTVSW”, which “polyreactivity (PSR sort gate)” value is on record?
Answer: low polyreactivity

Question: Which “polyreactivity (PSR sort gate)” value does the source give for “QVQLVESGGGLVQAGGSLRLSCAASGRIFGAYTMGWYRQEPGKERELVAAISDGGDTYYADSVKGRFTISRDNAKNTVYFQMNRVKPEDTAVYYCAADAPYYAYYWFPSSFGIYGYWGQGTQVTVSS” here?
Answer: low polyreactivity

Question: With “QVQLVESGGGLVQAGGSLRLSCAASGITFPYYDMGWYRQAAGKERELVAAIDWSGATSYYADSVKGRFTISRDNAKNTVYLQMNSLKPEDTAVYHCNADPPLDLWYVTNRIYHLYDYWGQGTQVTVSS” as the sequence, how does the “polyreactivity (PSR sort gate)” value read?
Answer: high polyreactivity

Question: For “QVQLVDSGGGLVQAGGSLRLSCAASGSILAGNVMGWYRQAPGKERELVASITFRGSRTYYADSVKGRFTISRDNAKNTVYLQMNSLKPEDTAVYYCNADVWASGSRGEGYWGQGTQVTVSS”, which “polyreactivity (PSR sort gate)” value is on record?
Answer: low polyreactivity

Question: Which “polyreactivity (PSR sort gate)” value does the source give for “QVQLVESGGGLVQAGGSLRLSCAASGFIFYDYAMGWYRQAPGKEREMVAGITDSGGSTSYADSVKGRFTISRDNAKNTVYLQMNSLKPEDTAVYYCAADNYVRAGINYDYWGQGTQVTVSS” here?
Answer: low polyreactivity

Question: For “QVQLVESGGGLVQAGGSLRLSCAASGFTFGHNDMGWYRQAPGKERELVASITQSGGSTYYADSVKGRFTISRDNAKNTVYLQMNSLKPEDTAVYYCAKDLYQSAFITKYDYWGQGTQVTVSS”, which “polyreactivity (PSR sort gate)” value is on record?
Answer: low polyreactivity

Source: the nanobody polyreactivity screen of Harvey et al. (2022)
